Consider two molecules from patent US20190127444A1 (published 2019).

Assay [1] deals with LukE, recombinant polyhistidine-tagged variant. In words: SPR. A general note: Surface plasmon resonance follows binding to a sensor surface in real time, without labels.
Assay [2] concerns the target SdgB glycosylated SdrC4 protein (UniProt O86487 51-910). Kind of assay: SPR.

B1: mAb 5133 PRASA A6 HC-L4-E (Table 1 Construct 15) (bispecific antibody)
heavy: EVQLVETGGGLVKPGGSLRLSCSASRFSFRDYYMTWIRQAPGKGPEWVSHISGSGSTIYYADSVRGRFTISRDNAKSSLYLQMDSLQADDTAVYYCARGGRATSYYWVHWGPGTLVTVSSASTKGPSVFPLAPSSKSTSGGTAALGCLVKDYFPEPVTVSWNSGALTSGVHTFPAVLQSSGLYSLSSVVTVPSSSLGTQTYICNVNHKPSNTKVDKKVEPKSCDKTHTCPPCPAPPVAGPDVFLFPPKPKDTLMISRTPEVTCVVVDVSHEDPEVKFNWYVDGVEVHNAKTKPREEQYNSTYRVVSVLTVLHQDWLNGKEYKCKVSNAALPAPIAKTISKAKGQPREPQVYTLPPSRDELTKNQVSLTCLVKGFYPSDIAVEWESNGQPENNYKTTPPVLDSDGSFFLYSKLTVDKSRWQQGNVFSCSVMHEALHNRFTQKSLSLSPGKGGGGSGGGGSGGGGSGGGGSMLPAPKNLVVSRVTEDSARLSWTAPDAAFDSFHIEYAEPWVWGEAIVLTVPGSERSYDLTGLKPGTEYVVFIGGVKGGHNSTPLSAIFTT
light: EIVLTQSPATLSLSPGERATLSCRASQSVSGYLGWYQQKPGQAPRLLIYGASSRATGIPDRFSGSGSGTDFTLTISRLEPEDFAVYYCQQYGSSPLTFGGGTKLEIKRTVAAPSVFIFPPSDEQLKSGTASVVCLLNNFYPREAKVQWKVDNALQSGNSQESVTEQDSKDSTYSLSSTLTLSKADYEKHKVYACEVTHQGLSSPVTKSFNRGEC
For orientation: Kd means the concentration at which binding is half-saturated. In the case of B1, the Kd turned out to be 880 pM in assay [1] and 630 pM in assay [2].

B2: mAb 5133 PRASA A6 HC-L4-E-L4-AB (Table 1 Construct 11) (bispecific antibody)
heavy: EVQLVETGGGLVKPGGSLRLSCSASRFSFRDYYMTWIRQAPGKGPEWVSHISGSGSTIYYADSVRGRFTISRDNAKSSLYLQMDSLQADDTAVYYCARGGRATSYYWVHWGPGTLVTVSSASTKGPSVFPLAPSSKSTSGGTAALGCLVKDYFPEPVTVSWNSGALTSGVHTFPAVLQSSGLYSLSSVVTVPSSSLGTQTYICNVNHKPSNTKVDKKVEPKSCDKTHTCPPCPAPPVAGPDVFLFPPKPKDTLMISRTPEVTCVVVDVSHEDPEVKFNWYVDGVEVHNAKTKPREEQYNSTYRVVSVLTVLHQDWLNGKEYKCKVSNAALPAPIAKTISKAKGQPREPQVYTLPPSRDELTKNQVSLTCLVKGFYPSDIAVEWESNGQPENNYKTTPPVLDSDGSFFLYSKLTVDKSRWQQGNVFSCSVMHEALHNRFTQKSLSLSPGKGGGGSGGGGSGGGGSGGGGSMLPAPKNLVVSRVTEDSARLSWTAPDAAFDSFHIEYAEPWVWGEAIVLTVPGSERSYDLTGLKPGTEYVVFIGGVKGGHNSTPLSAIFTTGGGGSGGGGSGGGGSGGGGSMLPAPKNLVVSRVTEDSARLSWTAPDAAFDSFWITYEEKFYRGEAIVLTVPGSERSYDLTGLKPGTEYKVWIVGVKGGQGSWPLSAIFTT
light: B1 light
Turning to B2, the figures for the dissociation constant Kd in assay [1] and in assay [2] were 1010 pM and 910 pM, respectively.
